From patent publication US20210285960A1

Experiments:
[1] = molecular target: Fab488-Fc555 dual-labeled test antibody; assay: cell-based or functional assay
[2] = molecular target: PL555-PA488 dual-labeled test antibody; assay: cell-based or functional assay

CA125 TIPS factor (MUC16/CA125), Q8WXI7 1-14451
increase in 570 nm emission signal (FRET, 470 nm excitation) [1]: 35% | increase in 570 nm emission signal (FRET, 470 nm excitation) [2]: 18%
